Measured values published in patent publication US20050026833A1, “PSP-94: use for treatment of hypercalcemia and bone metastasis” (priority 2001, published 2005).
Entries after “also recorded” stand apart in the source; their conditions may differ.

B1: PSP-94: prostate secretory protein of 94 amino acids; native human seminal plasma PSP-94 (protein)
chain: SCYFIPNEGVPGDSTRKCMDLKGNKHPINSEWQTDNCETCTCYETEISCCTLVSTPVGYDKDNCQRIFKKEDCKYIVVEKKDPKKTCSVSEWII

How the values were obtained:
[1] = Animal weight and side-effect monitoring in tumor-bearing rats; conditions: for cytotoxic effects: overall conclusion of the study
Experimental: Also, alternatively, cell pellets (5×10^5 cells) were resuspended in 100 ul saline and injected using 1 ml syringes into the right flank of rats as described herein. From the time of tumor cell inoculation, experimental animals were treated with different doses (0.1, 1.0, 10.0, or 100.0 ug/kg/day) of PSP-94 or PCK3145 (SEQ ID NO.:5) via S.C. injections for 15 consecutive days. Control animals received PBS alone as vehicle control. All animals were numbered, kept separately and monitored daily for the development of tumors. […] All control and experimental animals were weighed every alternate day to determine any adverse effect of PSP-94 or PCK3145. Both control and experimental animals were sacrificed at day 16 post tumor cell inoculation and their tumors were removed and weighed.
During the study, both control and experimental animals were monitored for any noticeable side effects and cachexia resulting in weight loss. […] Starting on the time of tumor cell inoculation animals were infused with different doses of PSP-94 for fifteen consecutive days as described herein. All animals were weighed at timed intervals and comparison was made with that of tumor bearing animals receiving vehicle alone as control (CTL).
Male Copenhagen rats were inoculated with 1×10^6 Mat Ly Lu-PTHrP cells via S.C. route of injection into the right flank. Animals were infused daily via S.C. route, below the site of tumor cell inoculation, with different doses (1.0-100.0 ug/kg/day) of PCK3145 starting from the day of tumor cell inoculation and lasting for 15 days. […] Animals were also weighed to determine any side effects of administering PCK3145. […] In order to determine the effect of PCK3145 on tumor weight, control animals and experimental animals receiving PCK3145 were sacrificed at the end of the study (day 16) and their tumors excised and weighed.

[2] = tested on: PTHrP; test: Tumoral PTHrP production by immunohistochemistry of primary tumors; format: in vivo, male Copenhagen rats
Experimental: Histologic Analysis. For immunohistological analysis, primary tumor samples were dewaxed by heating at 60° C. and rehydrated in a graded alcohol series (100%-70%). Anti-rat antibody against PTHrP was used as the primary antibody. Tumor sections were incubated overnight at 4° C. followed by further incubation with biotinylated universal antibody (Vector Laboratories, Burlingame, Calif.) for 45-60 minutes. Sections were rinsed with TBST (Tris buffered saline-Tween) followed by incubation with Vectastain ABC-AP Reagent (Vector Laboratories, Burlingame, Calif.) for 30 minutes. These sections were again washed with TBST and incubated with a Napthol AS-Mix Phosphate/Fast Red solution (Sigma-Aldriche, Oakville, ON). The sections were finally counterstained with Methyl Green (Vector Laboratories, Burlingame, Calif.) and mounted.
Alternatively, paraffin embedded tumor samples were cut into 5 um-thick sections for immunohistochemical analysis. […]
Tumors from control group treated with vehicle alone and experimental groups treated with different doses of PSP-94 (0.1-10.0 μg/kg/day) were excised, paraffin embedded, and sectioned and analyzed for tumoral PTHrP production by immunohistochemical reaction specific for PTHrP using method described herein. […] Three animals were present in each group and three tumor sections were analyzed for each animal by evaluating at least ten random fields of observation.
Primary tumors from control vehicle treated animals and animals treated with the highest dose of PCK3145 (100.0 ug/kg/day) were removed, paraffin embedded, and sectioned. […] Therefore, tumors from control group treated with vehicle alone and experimental group treated with the highest dose of PCK3145 (100.0 ug/kg/day) were excised and analyzed for tumoral PTHrP production by immunohistochemical analysis. […] No reaction was seen when these tumors were evaluated for background reaction in the absence of PTHrP antibody (NC).

[3] = tested on: Mat Ly Lu-PTHrP skeletal metastasis; test: I.C. inoculation skeletal metastasis model, hind limb paralysis; format: in vivo, male Copenhagen rats
Experimental: Animal Protocols. Inbred male Copenhagen rats weighing 200-250g were obtained from Harlan Sprague-Dawley (Indianapolis, Ind.). Before inoculation, Mat Ly Lu-PTHrP tumor cells growing in serum-containing medium were washed with Hanks buffer, trypsinized, and collected by centrifugation at 1500 rpm for 5 min. […] Animals were divided into control groups which received vehicle alone (PBS: phosphate buffered saline) and experimental groups which were infused I.P. with different doses (0.1-10.0 ug/kg/day) of PSP-94 starting at the time of tumor cell inoculation (day 0) until the day of skeletal metastasis development. The time after tumor cell inoculation which was required to develop hind limb paralysis (an index of spinal cord compression due to lumbar vertebrae metastasis) was determined and percentage of starting number of animals developing hind-limb paralysis was plotted.
Alternatively, cell pellets (10×10^3 cells) were resuspended in 100ul saline and injected using 1 ml syringes into the left ventricle of rats anaesthetised with ketamine/xylazine cocktail. […] The time after tumor cell inoculation which was required to develop hind limb paralysis (an index of spinal cord compression due to lumbar vertebrae metastasis) was determined and percentage of starting number of animals developing hind-limb paralysis was plotted. In other sets of experiments, following I.C. tumor cell inoculation, control animals receiving PBS and experimental animals receiving 100.0 ug/kg/day of PCK3145 were sacrificed before the development of hind-limb paralysis (day 10 post tumor cell inoculation) and their vertebral column spanning from L1-L5 was removed and subjected to bone histomorphometric and immunohistochemical analysis as described herein.
Thus, male Copenhagen rats were inoculated via I.C. route into the left ventricle with 10×10^3 Mat Ly Lu-PTHrP cells. Starting on the time of tumor cell inoculation (day 0) animals were infused with different doses of PSP-94 (0.1-10.0 ug/kg/day) until the day of development of hind-limb paralysis as described herein. Animals receiving vehicle alone as control (CTL) or PSP-94 were monitored daily for the development of hind-limb paralysis and % animals not paralyzed at different time points in each group was calculated.
Male Copenhagen rats were inoculated with Mat Ly L u-PTHrP cells (10×10^3) into the left ventricle via I.C. injections. Starting on the day of tumor cell inoculation (day 0), experimental animals received different doses of PCK3145 (1.0-100.0 ug/kg/day) via I.P. route. To evaluate the effect of PCK3145 on delaying the development of experimental skeletal metastasis, animals were evaluated daily by monitoring of the animals for the development of hind-limb paralysis. […]

| Molecule | animal weight ([1]; PCK3145 1.0-100.0 ug/kg/day S.C. for 15 days) | cytotoxic effects [1] | tumoral PTHrP production (PTHrP immuno-staining) ([2]; 100.0 ug/kg PCK3145, relative to lower doses) | tumoral PTHrP production (PTHrP immuno-staining) ([2]; different doses of PCK3145 (data not shown), vs vehicle) | number of animals developing hind limb paralysis ([3]; 100.0 ug/kg/day PCK3145 I.P. from day 0, vs vehicle) | time of developing hind limb paralysis ([3]; 1.0 and 10.0 ug/kg/day PCK3145 I.P. (data not shown)) | side effects or weight loss of experimental animals ([1]; different doses of PSP-94, S.C. tumor model) | animal weight ([1]; different doses of PSP-94 for fifteen consecutive days, vs vehicle) | tumoral PTHrP production (PTHrP immunostaining) ([2]; PSP-94 0.1-10.0 ug/kg/day, vs vehicle) | number of animals developing hind limb paralysis (delay in skeletal metastasis) ([3]; 10.0 ug/kg/day PSP-94 from day 0, vs vehicle) | time of hind limb paralysis ([3]; 0.1 and 1.0 ug/kg/day PSP-94 (data not shown)) |
| --- | --- | --- | --- | --- | --- | --- | --- | --- | --- | --- | --- |
| E W Q T D N C E T C T C Y E T (EWQTDNCETCTCYET; PCK3145 (polypeptide 31-45)) | No significant difference | without manifesting any noticeable cytotoxic effects | most pronounced | dose dependent decrease | statistically significant delay | no significant effect | – | – | – | – | – |
| B1 | – | without manifesting any noticeable cytotoxic effects | – | – | – | – | not associated with any noticeable side effects or weight loss | No significant change | same dose-dependent decrease | statistically significant delay; also recorded: modest (but measurable) delay | no significant effect |
